Data as given in the RNAGym collection of RNA variant scans (doi:10.1073/pnas.2313332121).

B1: TPR t1 (parent)
chain: GACCAAUCUGCCCUCAGAGCUCGAGAACAUCUUCGGAUGCAGAGGAGGCAGGCUUCGGUGGCGCGAUAGCGCCAACGUCCUCAACCUCCAAUGCAUCCCACCACAUGAUGAUGCCUGAAGAGCCUUGGUUUUUUG

Variants of: B1
Test: polymerase ribozyme fitness, log enrichment relative to wild type (log ratio); higher = more active; in vitro selection for triplet polymerase activity
How it was run: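 The heterodimeric triplet polymerase ribozyme's subunits were each mutagenized into PCR-built libraries and transcribed. Every library was selected once, in triplicate, by annealing with a biotinylated primer, the partner subunit and triplets, incubating frozen at −7 °C, gel-excising extended constructs, capturing on streptavidin beads and running RT-PCR. Input and output libraries were Illumina-sequenced, with genotypes kept only at ≥10 input reads and ≥1 read per output. Fitness, from inverse-variance-weighted replicate averages, is the base-2 logarithm of genotype enrichment over wild-type enrichment.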

Variant | polymerase ribozyme fitness (log ratio)
GACCAAUCUGCCCUCAGAGCUCGAGAACAUCUUCGGAUGCAGAGGAGGCAGGCUUCGGUGGCGCGAUAGCACCAACUUCCUCAACCUUCAAUGCAUCCCACCACAUGAUAAUGCAUGAAGAGCCUUGGUAUUUUG [G71A G77U C88U G110A C115A U130A] | -4.99
GACCAAUCUGCCCUCAGAGCUCGAGAACAUCUUCGGAUGCAGAGGAGGCAGGCUUCGGUGGCGCGAUAGCACCAACGUCCUCAACCUCCAAUGCAUCCCACCACAUGAUGGUGCCUGAAGAGCCUUGGUUUUUUG [G71A A111G] | -0.423
GACCAAUCUGCCCUCAGAGCUCGAGAACAUCUUCGGAUGCAGAGGAGGCAGGCUUCGGUGGCGCGAUAGUGCCAACGUCCUCAACCUCCAAUGCAUCCCACCACAUGAUGAUGCCUAAAGAGCCUUGGUUUUUUG [C70U G117A] | -1.99
GACCAAUCUGCCCUCAGAGCUCGAGAACAUCUUCGGAUGCAGAGGAGGCAGGCUUCGGUGGCGCGAUAGCACCAACGUCCUCAACCUCCAAUGCAUUCCACCACAUGAUGAUGCCUGAAGAGCCUUGGUUUUUUG [G71A C97U] | -1.06
GACCAAUCUGCCCUCAGAGCUCGAGAACAUCUUCGGAUGCAGAGGAGGCAGGCUUCGGUGGCGCGAUAGUGCCAACGUCCUCAACCUCCAAUGCAUCCCACCACAUCAUGAUGCCUGAAGAACCUUGGUUUUUUG [C70U G107C G122A] | -5.12
GACCAAUCUGCCCUCAGAGCUCGAGAACAUCUUCGGAUGCAGAGGAGGCAGGCUUCGGUGGCGCGAUAGCACCAACGUCCUCAACCUCCAAUGCAUCCCACCACAUGAUGAUGCCUGAAGAGUCUUGGUUUUUUG [G71A C123U] | 0.153
GACCAAUCUGCCCUCAGAGCUCGAGAACAUCUUCGGAUGCAGAGGAGGCAGGCUUCGGUGGCGCGAUAGCACCAACGUCCUCAACCUCUAAUGCAUCCCACCACAUGAUGUAGCCUGAAGAGACUUCGUUUUUUG [G71A C89U A111U U112A C123A G127C] | -2.37
GACCAAUCUGCCCUCAGAGCUCGAGAACAUCUUCGGAUGCAGAGGAGGCAGGCUUCGGUGGCGCGAUAGCACCAACGUCCUCAACCUCCAAUGCAUCCCACCACAUGAUGAUGCCUGGAGAGCCUUGGUUUUUUG [G71A A118G] | -0.577
GACCAAUCUGCCCUCAGAGCUCGAGAACAUCUUCGGAUGCAGAGGAGGCAGGCUUCGGUGGCGCGAUAGCACCAACGUCCUCAACCUCCAAUGCAUCCCACCACAUGAUGAUGCCUGAAGAGCCUUGCUUUUUUG [G71A G128C] | -3.14
GACCAAUCUGCCCUCAGAGCUCGAGAACAUCUUCGGAUGCAGAGGAGGCAGGCUUCGGUGGCGCGAUAGCACCAACGUCCUCAACAUCCAAUGCAUCCCACCACAUGAUGAUGACUGAAGAGCCUUGGUUUUUUG [G71A C86A C114A] | -3.9
GACCAAUCUGCCCUCAGAGCUCGAGAACAUCUUCGGAUGCAGAGGAGGCAGGCUUCGGUGGCGCGAUAGCACCAACGUCCUCAACCUCCAAUACAUCCCACCACAUGAUGAUGCCUAAACAGCCUUGGUUUUUUG [G71A G93A G117A G120C] | -2.99
GACCAAUCUGCCCUCAGAGCUCGAGAACAUCUUCGGAUGCAGAGGAGGCAGGCUUCGGUGGCGCGAUAGUGCCAACGUCCUCAACCUCCAAUGCAACCCACCACAUGAUGAUGCCUGAAAAGCCUUGGUUUUUUG [C70U U96A G120A] | -0.134
GACCAAUCUGCCCUCAGAGCUCGAGAACAUCUUCGGAUGCAGAGGAGGCAGGCUUCGGUGGCGCGAUAGUGCCAACGUCCUCAACCUCCAAUGCAUCCCACCACAUGAUGAUGCCUGAACAGCCUUGGUUUCUUG [C70U G120C U132C] | 0.806
GACCAAUCUGCCCUCAGAGCUCGAGAACAUCUUCGGAUGCAGAGGAGGCAGGCUUCGGUGGCGCGAUAGUGCCAACGGCCUCAACCUCCAAUGCAUCCCACCACAUGGUGCUGCCUGAAGAGCCUUGGUUUUUUG [C70U U78G A108G A111C] | -2.26
GACCAAUCUGCCCUCAGAGCUCGAGAACAUCUUCGGAUGCAGAGGAGGCAGGCUUCGGUGGCGCGAUAGUGCCAACGUCCUCAACCUCCAAUGCAUCCCACCACAUGAUGAUGACUGAAGAGCCUUGGUUUUUUG [C70U C114A] | -2.33
GACCAAUCUGCCCUCAGAGCUCGAGAACAUCUUCGGAUGCAGAGGAGGCAGGCUUCGGUGGCGCGAUAGCACCAACGUCCUUAACCUCCAAUGCAUCCCACCACAUGAUUAUGCCUGAAGAGCCUUGGUUUUUUG [G71A C82U G110U] | -2.94
GACCAAUCUGCCCUCAGAGCUCGAGAACAUCUUCGGAUGCAGAGGAGGCAGGCUUCGGUGGCGCGAUAGCACCAACGUCCUCAACCUCCAAUGCAUCCCACCACAUGAUGAUGCCUUAAGAGCCUUGGUUUUUUG [G71A G117U] | -2.33
GACCAAUCUGCCCUCAGAGCUCGAGAACAUCUUCGGAUGCAGAGGAGGCAGGCUUCGGUGGCGCGAUAGUGCCAACGUCCUCAACCUCCAAUGCAUCCCACCACAUGAUGAUGCCUGAAGAGCCUUGGUUCUUUG [C70U U131C] | 0.366
GACCAAUCUGCCCUCAGAGCUCGAGAACAUCUUCGGAUGCAGAGGAGGCAGGCUUCGGUGGCGCGAUAGUGCCAACGUCCUCAACCUCCAAUGCAUCCCACCACAUGAUGAUGCCUGAAGAGCCUUGGUUAUUUG [C70U U131A] | -0.232
GACCAAUCUGCCCUCAGAGCUCGAGAACAUCUUCGGAUGCAGAGGAGGCAGGCUUCGGUGGCGCGAUAGUGCCAACGUCCUCAACCUCCAAUGCAUCCCACCACAUGAUGACGCCUGAAGAGCCUUGGUUUUUUG [C70U U112C] | 0.987
GACCAAUCUGCCCUCAGAGCUCGAGAACAUCUUCGGAUGCAGAGGAGGCAGGCUUCGGUGGCGCGAUAGCACCAACGUCCUCAACCUCCAAUGCAUCCCACCACAUGAUGAUGCCUGAAGAGCAUUGGUUUUUUG [G71A C124A] | 1.21
